# Measurements from the DeepSol protein solubility set.
# Assay: soluble on expression in E. coli; label from the status in PepcDB or PDB records
row,Sequence,soluble on expression in E. coli
1,METQWTRMTANEAAEIIQHNDMVAFSGFTPAGSPKALPTAIARRANEQHEAKKPYQIRLLTGASISAAADDVLSDADAVSWRAPYQTSSGLRKKINQGAVSFVDLHLSEVAQMVNYGFFGDIDVAVIEASALAPDGRVWLTSGIGNAPTWLLRAKKVIIELNHYHDPRVAELADIVIPGAPPRRNSVSIFHAMDRVGTRYVQIDPKKIVAVVETNLPDAGNMLDKQNPMCQQIADNVVTFLLQEMAHGRIPPEFLPLQSGVGNINNAVMARLGENPVIPPFMMYSEVLQESVVHLLETGKISGASASSLTISADSLRKIYDNMDYFASRIVLRPQEISNNPEIIRRLGVIALNVGLEFDIYGHANSTHVAGVDLMNGIGGSGDFERNAYLSIFMAPSIAKEGKISTVVPMCSHVDHSEHSVKVIITEQGIADLRGLSPLQRARTIIDNCAHPMYRDYLHRYLENAPGGHIHHDLSHVFDLHRNLIATGSMLGLEHHHHHH,not soluble
2,METRQASGQLAALVRPNDVNSGSLLFPSKEPGFYVEAPRLKTDVAIDVSGPIARVKVTQRFQNPSQGWIEGTYVFPLPDNSAVDALKMQIGDRFIEGQIKPRQEAREIYEQAKAEGKKTALLEQQRPNIFTNQVANIGPGEEIVVQIEYQQTVHQSGGEFSLRFPMVVAPRYNPAPIVQTVDFNNGAGFAIPRDPVQNREKIEAPVLDPRENARINPVSLTVNLKAGFPLGEVKSSFHDVDIGQDGDQARTISLKGDAVPADKDFELTWKAAPGKTPSAGLFREAIDGKTYLLAFVTPPTAPDAAAPSKREVVFVIDNSGSMSGQSIEQARQSLALAISRLNPNDRFNVIRFDDTMTDYFKGLVAATPDNREKAVAYVRSLTADGGTEMLPALEDALRNQGPVASGALRQVVFLTDGAIGNEQQLFQEITANRGDARVFTVGIGSAPNTYFMTKAAEVGRGTFTQIGSTDQVASRMSELFAKLQNPTMTDIAASFEGIEAEDITPNPMPDLYSGEPVVLTAELPQDKAAGKLQIVGKTGDQPWRVEMDIANAAVGSGISKLWARRKIDDLEARAYERQDPAALDKDIEAVALAHHLVSRVTSLVAVDVTPSRPANEPLGSAKLPLNLPEGWDFGKVFGEKAVPSGGAERHGAATPAGSAEPQRAAAATQDLAASPEIANLMAAAPTAKAATLIAQKSSTVNLPQTATRADEQIMRGLEHHHHHH,soluble
3,MEVDNVKPSSSVPQRNWEKENNVQNVDSIFEYNNKQQVEIRNAKPWDKDPHYFKQIKISAIALLKMTMHAKRGGNLEIMGLLQGRIDANSFIILDVFALPVEGTETRVNAQAQAYEYMTVYSEMCDTEGRKEKVVGWYHSHPGYGCWLSGIDVSTQTLNQKFQEPWVAIVIDPLRTMSAGKVDIGAFRTYPEGYRPPDDVPSEYQSIPLAKIEDFGVHCKRYYSLDVSFFKSQLDAHILTSLWNSYWISTLSSSPLFSNVEFLNNQIQDINQKLSAVDKKLQLNDRSVDGHEALMKVVTDAKAVGDELETGRISHLVKQLLFARQAGGGCGCSHASAGSPMDIAVATEPEKAGPSPSAPEPAVEMADA,not soluble
4,MEVDTASSRHSTVLKRKATDSINEILNYGQSSTSPQKRCKKAASLHKYRDMETYHKIIKTYKAPTWYGCAVSPRDLADYGWACVKKDCVKCIECEQYLSTVLPNICKVSFNVYNSSLQDIHEKMTTAHRTTCKLRCGAPPFRIVEPTAKEVMDGIQRRLSDSKKIIDEDLKADIPSDVNLPKIEGVPEQLIYVAALGWHVSMPKRGSLLFGCDNCARELAIRCGNKFDPIHNHERWCPRIEMDDHGEPSWQSDLNTVLNTKNHVTNRYTGSSIFKEAYAARRLLDSSLSTIITPNYI,not soluble
5,MEVEIKFKIKLEDFLHTLNTFNPEFVRYEEQEDVYFEVPRPKLLRIRGVHNLKKYYLTFKEILDENNEEFYEVEFEIGDFEKAVEVFKRLGFKIQATIKKKRWVYKLNGVTLEVNRVEGIGDFVDIEVISDSPEEAKEKIWEVAKMLGLKEEDVEPRLYLELINELSGRSSLEHHHHHH,soluble
6,MEVFVFTPKGDLYKMPKGATVLDFAFAIHSKLGSKCIGAKVNGKNAQLKQTLNSGDQVEVMTSNTQTPKLEHHHHHH,not soluble
7,MEVQSMLLNDVKWEKPVTISLQNGAPRIFNGVYEAFDFLQHEWPARGDRAHEQALRLCRASLMGDVAGEIARTAFVAASRQAHCLMEDKAEAPNTIASGS,soluble
8,MEVSKIRIHDLPEEERPRERLIKNGPESLSNAELLGIVLRTGSREENVISLCSRILMEYNIKQLSLANVSKLMQVNGIGKAKAAQIAAVFELARRLETFVEEPKRKISSPKDVYTLMYPKMREQKKEKFITLYLDTKNQILKEEVVSIGSLNASIVHPREVFKSALMESSASVIMVHNHPSGDPSPSREDIMVTEKLVEGGKLLGIDILDHIIIGDGRYVSLKDEGFVK,not soluble
9,MEVSSVFIFPPKPKDVLTITLTPKVTCVVVDISKDDPEVQFSWFVDDVEVHTAQTQPREEQFNSTFRSVSELPIMHQDWLNGKEFKCRVNSAAFPAPIEKTISKTKGRPKAPQVYTIPPPKEQMAKDKVSLTCMITDFFPEDITVEWQWNGQPAENYKNTQPIMDTDGSYFVYSKLNVQKSNWEAGNTFTCSVLHEGLHNHHTEKSLSHSPGKE,soluble
10,MEVYSKLRAPPSSRMILRLDGRGFHRLTESLDFDRPYDEAFRDLMIRTCLDLMEEFSPSLIYTFSDEINVLLDSVPFAGRVEKLDSVFSGFASSSFTRGALEAGFSPVKPVSFDCRVIPISSDIVPEYFRSRQDESWRNCLNSYAYWTLRREVGARRAAERLRGLKSDSLHDLLFERGVNISRVPAWQRRGVGVYRVPHRVRGYNPIRDEEVSAVRMRVKVDLELPLFTDEFFEGLMRLEHHHHHH,soluble
11,MEWKDIKGYEGHYQVSNTGEVYSIKSGKTLKHQIPKDGYHRIGLFKGGKGKTFQVHRLVAIHFCEGYEEGLVVDHKDGNKDNNLSTNLRWVTQKINVENQMSRGTLNVSKAQQIAKIKNQKPIIVISPDGIEKEYPSTKCACEELGLTRGKVTDVLKGHRIHHKGYTFRYKLNG,soluble
12,MEYEWKPDEQGLQQILQLLKESQSPDTTIQRTVQQKLEQLNQYPDFNNYLIFVLTKLKSEDEPTRSLSGLILKNNVKAHFQNFPNGVTDFIKSECLNNIGDSSPLIRATVGILITTIASKGELQNWPDLLPKLCSLLDSEDYNTCEGAFGALQKICEDSAEILDSDVLDRPLNIMIPKFLQFFKHSSPKIRSHAVACVNQFIISRTQALMLHIDSFTENLFALAGDEEPEVRKNVCRALVMLLEVRMDRLLPHMHNIVEYMLQRTQDQDENVALEACEFWLTLAEQPICKDVLVRHLPKLIPVLVNGMKYSDIDIILLKGDVEEDETIPDSEQDIRPRFHRSRTVAQQHDEDGIEEEDDDDDEIDDDDTISDWNLRKCSAAALDVLANVYRDELLPHILPLLKELLFHHEWVVKESGILVLGAIAEGCMQGMIPYLPELIPHLIQCLSDKKALVRSITCWTLSRYAHWVVSQPPDTYLKPLMTELLKRILDSNKRVQEAACSAFATLEEEACTELVPYLAYILDTLVFAFSKYQHKNLLILYDAIGTLADSVGHHLNKPEYIQMLMPPLIQKWNMLKDEDKDLFPLLECLSSVATALQSGFLPYCEPVYQRCVNLVQKTLAQAMLNNAQPDQYEAPDKDFMIVALDLLSGLAEGLGGNIEQLVARSNILTLMYQCMQDKMPEVRQSSFALLGDLTKACFQHVKPCIADFMPILGTNLNPEFISVCNNATWAIGEISIQMGIEMQPYIPMVLHQLVEIINRPNTPKTLLENTAITIGRLGYVCPQEVAPMLQQFIRPWCTSLRNIRDNEEKDSAFRGICTMISVNPSGVIQDFIFFCDAVASWINPKDDLRDMFCKILHGFKNQVGDENWRRFSDQFPLPLKERLAAFYGV,soluble
13,MEYFNVGKIVNTQGLQGEMRVLSVSDFAEERFKKGSQLALFDDKDRFVQEVTIVSHRKQKHFDIIKFKDMYHINAIEKYKGYTLKVSKDNQGDLQEGEFYYHQIIGMAVYEKDVLIGHVKEILQPGANDVWIVKRQGKRDLLLPYIPPVVLNVDVPNKRVDVELMEGLDDED,not soluble
14,MFAIISVTGADHTGIIAAVATKCADLGVNINNVSQTIMDGYFTMILHVSFDDSATDIATIQESMADVEKDQNLVIRIQSQAIFDAMNII,not soluble
15,MFCDRIRGSLTKDKERIMSSKNYIDVIIDGKIYNIGGFESEAYLQKVASYINNMIAEFKQNENYRVQKVDMQRILLEINIANDYFKAKKQADLLQNDIELKEKEVYDLKHELIVSDSKAETATKELNEALEKIESLEKEIIKLQTELEK,not soluble
16,MFDDKILLITGGTGSFGNAVMKQFLDSNIKEIRIFSRDEKKQDDIRKKYNNSKLKFYIGDVRDSQSVETAMRDVDYVFHAAALKQVPSCEFFPVEAVKTNIIGTENVLQSAIHQNVKKVICLSTDKAAYPINAMGISKAMMEKVFVAKSRNIRSEQTLICGTRYGNVMASRGSVIPLFIDKIKAGEPLTITDPDMTRFLMSLEDAVELVVHAFKHAETGDIMVQKAPSSTVGDLATALLELFEADNAIEIIGTRHGEKKAETLLTREEYAQCEDMGDYFRVPADSRDLNYSNYVETGNEKITQSYEYNSDNTHILTVEEIKEKLLTLEYVRNELNDYKASMR,not soluble
17,MFDGIGFMELLLIGVLGLIVLGPERLPVAVRSVTSWVRAMKRMANSVKEELEQELKIEQLHADLKKAESKGLSNLSPELQESIEQLKQAAQSVNRPYQVQDTPSAQDNQIHNPASQTVSTEASSTSASSAPKSESIQGEDPRSNTKANGLEHHHHHH,soluble
18,MFDLPVETEEQRRNYRIFRKELIQEGFVMIQYSIYVRVCPSREFANRIENRIKKNLPLEGNVRLLCVTEKQYDDMKLLVGSRQTSETAIGTERLIIILEHHHHHH,not soluble
19,MFEFKHIKAFDRAFADNPGPMVVFATPGMLHAGQSLQIFRKWAGNEKNMVIMPGYCVQGTVGHKILSGQRKLEMEGRQVLEVKMQVEYMSFSAHADAKGIMQLVGQAEPESVLLVHGEAKKMEFLKQKIEQELRVNCYMPANGETVTLPTSPSIPVGISLGLLKREMAQGLLPEAKKPRLLHGTLIMKDSNFRLVSSEQALKELGLAEHQLRFTCRVHLHDTRKEQETALRVYSHLKSVLKDHCVQHLPDGSVTVESVLLQAAAPSEDPGTKVLLVSWTYQDEELGSFLTSLLKKGLPQAPS,soluble
20,MFENITAAPADPILGLADLFRADERPGKINLGIGVYKDETGKTPVLTSVKKAEQYLLENETTKNYLGIDGIPEFGRCTQELLFGKGSALINDKRARTAQTPGGTGALRVAADFLAKNTSVKRVWVSNPSWPNHKSVFNSAGLEVREYAYYDAENHTLDFDALINSLNEAQAGDVVLFHGCCHAPTGIDPTLEQWQTLAQLSVEKGWLPLFDFAYQGFARGLEEDAEGLRAFAAMHKELIVASSYSKNFGLYNERVGACTLVAADSETVDRAFSQMKAAILANYSNPPAHGASVVATILSNDALRAIWEQELTDMRQRIQRMRQLFVNTLQEKGANRDFSFIIKQNGMFSFSGLTKEQVLRLREEFGVYAVASGLVNVAGMTPDNMAPLCEAIVAVL,soluble
21,MFERVREDIQSVFHRDPAARNALEVLTCYPGLHAVWLHRLAHGLWTSGWKWLARLVSNFGRWMTGIEIHPGARIGRRFFIDHGMGIVIGETAEIGDDVTLYQGVTLGGTTWNKGKRHPTLGNNVVVGAGAKVLGPFTVGEGAKVGSNAVVTKEVPPGATVVGIPGRIIMREDSEQQAKRQAMAEKLGFDAYGVSQDMPDPVARAIGQLLDHLQAVDGRLEGMCQALTALGSDYCAKDLPVLREEDFAGVKDEDGNPAA,not soluble
